Measurements published in patent US20250236653A1 (published 2025).
Residue numbers refer to the chain shown, from its start. Like-named read-outs stand apart in the source and are kept apart here. Each block holds one binder with its values, some of them ahead of it.

What was measured:
Assay in all cases: flow cytometry
human OX40 [1] = molecular target: T1, human OX40 (human, UniProt P43489 29-277)
T1 chain: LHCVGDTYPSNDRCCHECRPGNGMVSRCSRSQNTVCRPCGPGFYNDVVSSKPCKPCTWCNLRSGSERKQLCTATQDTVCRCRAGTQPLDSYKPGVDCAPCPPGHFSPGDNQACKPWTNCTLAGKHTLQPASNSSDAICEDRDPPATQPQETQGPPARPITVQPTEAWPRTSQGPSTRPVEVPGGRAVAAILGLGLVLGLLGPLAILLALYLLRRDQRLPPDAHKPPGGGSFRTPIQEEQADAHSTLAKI

cynomolgus monkey OX40 = molecular target: T2, cynomolgus monkey OX40 (cynomolgus monkey)
T2 chain: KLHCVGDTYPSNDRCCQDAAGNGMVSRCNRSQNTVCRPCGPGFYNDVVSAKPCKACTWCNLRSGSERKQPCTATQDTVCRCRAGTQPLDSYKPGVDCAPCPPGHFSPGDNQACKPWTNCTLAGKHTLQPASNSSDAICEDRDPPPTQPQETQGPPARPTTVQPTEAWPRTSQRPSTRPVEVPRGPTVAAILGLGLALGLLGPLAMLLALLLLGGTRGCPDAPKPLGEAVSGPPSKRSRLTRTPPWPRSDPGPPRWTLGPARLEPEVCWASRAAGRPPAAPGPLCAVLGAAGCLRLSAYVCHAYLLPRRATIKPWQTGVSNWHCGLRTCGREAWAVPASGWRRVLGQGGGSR

human OX40 [2] = molecular target: T1, human OX40
human OX40 [3] = molecular target: T1, human OX40

- EC50 (human OX40 [1]): 59.2 nM
- EC50 (cynomolgus monkey OX40): 111 nM
- EC50 (human OX40 [2]): 92.6 nM
B1: mono-mut23-20E5 (Fc fusion)
chain: IWELKKDVYVVELDWYPDAPGEMVVLTCDTPEEDGITWTLDQSSEVLGSGKTLTIQVKEFGDAGQYTCHKGGEVLSHSLLLLHKKEDGIWSTDILKDQKEPKNKTFLRCEAKNYSGRFTCWWLTTISTDLTFSVKSSRGSSDPQGVTCGAATLSAERVRGDNKEYEYSVECQEDSACPAAEESLPIEVMVDAVHKLKYENYTSSFFIRDIIKPDPPKNLQLKPLKNSRQVEVSWEYPDTWSTPHSYFSLTFSVQVQGKSKREKKDRVFTDKTSATVICRKNASISVRAQDRYYSSSWSEWASVPCSGGGGSGGGGSGGGGSGGGGSGGGGSRNLPVATPDPGMFPCLHHSQNLLRAVSNMLQKARQTLEFSPCTSEEIDHEDITKDKTSTVEACLPLELTKNESCLNSRETSFITNGSCLASRKTSFMMALCLSSIYEDLKMYQVEFKTMNAKLLMDPKRQIFLDQNMLAVIDELMQALNFNSETVPQKSSLEEPDFYKTAIKLCILLHAFRIRAVTIDRVMSYLNASGGGGSGGGGSEPKSSDKTHTCPPCPAPEFEGGPSVFLFPPKPKDTLMISRTPEVTCVVVDVSHEDPEVKFNWYVDGVEVHNAKTKPREEQYNSTYRVVSVLTVLHQDWLNGKEYKCKVSNKALPASIEKTISKAKGQPREPQVCTLPPSRDELTKNQVSLSCAVKGFYPSDIAVEWESNGQPENNYKTTPPVLDSDGSFFLVSKLTVDKSRWQQGNVFSCSVMHEALHNHYTQKSLSLSPG
heavy: QVQLVQSGAEVKKPGASVKVSCKASGYTFTSYVMHWVRQAPGQRLEWIGYINPYNDGTKYNEKFKGRATLTSDKSASTAYMELSSLRSEDTAVYYCANYYGSSLSMDYWGQGTLVTVSSASTKGPSVFPLAPSSKSTSGGTAALGCLVKDYFPEPVTVSWNSGALTSGVHTFPAVLQSSGLYSLSSVVTVPSSSLGTQTYICNVNHKPSNTKVDKKVEPKSCDKTHTCPPCPAPEFEGGPSVFLFPPKPKDTLMISRTPEVTCVVVDVSHEDPEVKFNWYVDGVEVHNAKTKPREEQYNSTYRVVSVLTVLHQDWLNGKEYKCKVSNKALPASIEKTISKAKGQPREPQVYTLPPCRDELTKNQVSLWCLVKGFYPSDIAVEWESNGQPENNYKTTPPVLDSDGSFFLYSKLTVDKSRWQQGNVFSCSVMHEALHNHYTQKSLSLSPG
light: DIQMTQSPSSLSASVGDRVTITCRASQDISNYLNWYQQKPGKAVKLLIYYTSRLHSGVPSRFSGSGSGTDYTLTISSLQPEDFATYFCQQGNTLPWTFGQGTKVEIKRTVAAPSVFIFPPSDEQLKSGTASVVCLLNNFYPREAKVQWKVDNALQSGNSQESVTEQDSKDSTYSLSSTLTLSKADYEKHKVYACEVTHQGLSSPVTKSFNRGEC

- EC50 (human OX40 [2]): 538 nM
B2: mono-mut23-20E5_V6 (Fc fusion)
chain: B1 chain
heavy: B1 heavy with G57A
light: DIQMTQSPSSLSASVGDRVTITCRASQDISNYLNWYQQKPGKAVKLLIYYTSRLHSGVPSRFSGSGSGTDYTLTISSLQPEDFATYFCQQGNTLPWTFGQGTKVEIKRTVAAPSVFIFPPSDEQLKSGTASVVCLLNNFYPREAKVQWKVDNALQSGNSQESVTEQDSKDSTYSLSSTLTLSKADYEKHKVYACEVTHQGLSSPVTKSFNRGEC

- EC50 (human OX40 [3]): 839 nM
B3: mono-mut23-12H3_V3 (Fc fusion)
chain: B1 chain
heavy: QVQLVQSGAEVKKPGSSVKVSCKASGYTFKDYTMHWVRQAPGQGLEWIGGIYPNQGGSTYNQNFKDRVTLTADKSTSTAYMELSSLRSEDTAVYYCARMGYHGPHLDFDVWGQGTTVTVSSASTKGPSVFPLAPSSKSTSGGTAALGCLVKDYFPEPVTVSWNSGALTSGVHTFPAVLQSSGLYSLSSVVTVPSSSLGTQTYICNVNHKPSNTKVDKKVEPKSCDKTHTCPPCPAPEFEGGPSVFLFPPKPKDTLMISRTPEVTCVVVDVSHEDPEVKFNWYVDGVEVHNAKTKPREEQYNSTYRVVSVLTVLHQDWLNGKEYKCKVSNKALPASIEKTISKAKGQPREPQVYTLPPCRDELTKNQVSLWCLVKGFYPSDIAVEWESNGQPENNYKTTPPVLDSDGSFFLYSKLTVDKSRWQQGNVFSCSVMHEALHNHYTQKSLSLSPG
light: DIQMTQSPSSLSASVGDRVTITCKASQDVGAAVAWYQQKPGKAPKLLIYWASTRHTGVPSRFSGSGSGTDFTLTISSLQPEDFATYYCQQYINYPLTFGGGTKVEIKRTVAAPSVFIFPPSDEQLKSGTASVVCLLNNFYPREAKVQWKVDNALQSGNSQESVTEQDSKDSTYSLSSTLTLSKADYEKHKVYACEVTHQGLSSPVTKSFNRGEC

- EC50 (human OX40 [1]): 15.6 nM
- EC50 (cynomolgus monkey OX40): 19.2 nM
B4: mono-mut23-12H3 (Fc fusion)
chain: B1 chain
heavy: B3 heavy with Q55N
light: B3 light

- EC50 (human OX40 [3]): 1910 nM
B5: mono-mut23-12H3_V8 (Fc fusion)
chain: B1 chain
heavy: B3 heavy with M99I
light: B3 light

- EC50 (human OX40 [2]): 69.2 nM
B6: mono-mut23-20E5_V4 (Fc fusion)
chain: B1 chain
heavy: B1 heavy with D56E
light: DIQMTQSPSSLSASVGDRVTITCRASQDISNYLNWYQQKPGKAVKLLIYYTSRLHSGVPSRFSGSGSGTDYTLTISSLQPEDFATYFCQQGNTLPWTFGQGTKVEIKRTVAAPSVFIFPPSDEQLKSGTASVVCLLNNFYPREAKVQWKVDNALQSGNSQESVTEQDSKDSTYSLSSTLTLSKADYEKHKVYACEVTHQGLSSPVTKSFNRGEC

- EC50 (human OX40 [3]): 1880 nM
B7: mono-mut23-12H3_V4 (Fc fusion)
chain: B1 chain
heavy: B3 heavy with Q55A
light: B3 light

- EC50 (human OX40 [2]): 73 nM
B8: mono-mut23-20E5_V5 (Fc fusion)
chain: B1 chain
heavy: B1 heavy with D56A
light: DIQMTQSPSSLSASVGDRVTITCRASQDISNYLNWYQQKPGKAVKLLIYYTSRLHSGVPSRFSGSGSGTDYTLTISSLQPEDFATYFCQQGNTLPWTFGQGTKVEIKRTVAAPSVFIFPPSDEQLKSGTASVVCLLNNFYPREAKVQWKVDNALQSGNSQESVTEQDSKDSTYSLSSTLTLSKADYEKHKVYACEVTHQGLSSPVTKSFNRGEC
